Source: PMC2846270 (Biochemical and biophysical research communications, 2010)

Biological target: the molecule itself
Test: electron microscopy

B1: Taz1pΔC (C-terminally truncated version of the Taz1 protein) (domain or fragment, S. pombe, UniProt P79005 1-556, looked up)
chain: MISVQSTETIQKVLENEGDQQFDKEVVQNSDSNIETGQISDSLTKAVEERAETESSSNLSNFTTSESESSKPAYCFNSHSQNMAEGSISIPVISHSMNVENEVSTAEGQDSRTGESENDQNAMIVRSIWDIEKASLLVNDCQNIANMAEQKVMMVSAIFSESSKDIVNPESFSERLGKETVKDLYEFNEQLTTKYGLEFRTIFFSYIRKYDAYWCLFEDLEKPLKSIQFFTGLIDLLDNTNKHLTLRSIVLDALLSADEEDSFYGDALVLFEELVIRYFGTDSNPSIDASEFILSCLPYTSLDALNVVCGQVWKSQKICDFLKSTIGNTSNSPLQLRASFPAFVNAVIHFLLEFKNVRRLERKDLSVKGMLYDSDSQQILNRLRERVSGSTAQSADEASGHESDASEDTFSERTLGLNSIDNTEISEVVSLGLVSSALDKITGLLSADNLSETVSQARDFSHTLSKSLKSRAKSLSQKEAANRSKLIAKRGDNLRREASLSSEQDDLSEDFPPVRESDEQESRSGGRSSAMRVSIERSAARSGTRRSQGNPYEGYR
  binding result: binds
